1 molecule from PMC6529637 can be followed below.

The experiment addresses BamA (E. coli (endogenous in MC4100-derived strains)), P0A940. Nature of the experiment: cross-linking; in vivo formaldehyde cross-linking (0.7%, 12 min, room temperature, cells in PBS pH 7.6), SDS-PAGE and immunoblot with anti-RcsF and anti-BamA; strains grown in glucose minimal medium at 30°C; backgrounds: WT, ΔbamE, bamA101, bamB::Kan, bamD(R197L), bamD(L13P), bamA(F494L) and combinations. As to conditions: remark: other sources report otherwise. On the technique in general: In western blotting, separated proteins are transferred to a membrane and probed.

B1: regulator of capsule synthesis protein F (RcsF), P69411 16-134 (natural protein)
chain: CSMLSRSPVEPVQSTAPQPKAEPAKPKAPRATPVRIYTNAEELVGKPFRDLGEVSGDSCQASNQDSPPSIPTARKRMQINASKMKANAVLLHSCEVTSGTPGCYRQAVCIGSALNITAK
modifications: here or on the partner: lipid moiety on the N-terminal domain (lipoprotein)
As for B1, the fraction of BamA cross-linked to RcsF (ΔbamE strain) turned out to be 30%.
